Experimental data taken from patent US20120100604A1, “METHODS AND COMPOSITIONS FOR GENERATING SELF ATTENUATING GENETIC CIRCUITRY” (THE REGENTS OF THE UNIVERSITY OF CALIFORNIA, priority 2008, published 2012).

Experiments:
human satellite cells = assay: Myogenic regenerative capacity of human satellite cells (proliferating fusion-competent myoblasts, desmin/BrdU); format: cell-based; details: young and old human satellite cells in culture
Procedure: Myofiber and satellite cell cultures were isolated from basal state human biopsies, in a manner similar to those previously described for the mouse model (Conboy et al. (2003) Science 302:1575-1577). Whole muscle biopsies were prepared for myofiber fragments by enzymatic digestion −37° C. in DMEM (Invitrogen, Carlsbad, Calif.)/Pen-Strep (Invitrogen)/0.2% Collagenase Type IIA (Sigma), trituration, and multiple sedimentation and washing procedures. Isolated satellite cells and myofibers were resuspended in growth medium (Ham's F10 nutrient mixture—Mediatech, Inc., Herndon, Va.), 10% BGS, 5 ng/ml hbFGF (Invitrogen) and 1% Pen-Strep, and cultured on Matrigel (diluted 1:250). Blood was collected from subjects for sera isolation. Briefly, blood cells were coagulated followed by centrifugation at 8,000 rpm, 4° C. in a microfuge for 3 minutes. […]
To examine effects of TGF-β on myogenic properties of human muscle stem cells, exogenous molecule was added to young and old human satellite cells in culture. Myogenic capacity was determined based on numbers of fusion-competent, proliferating myoblasts, e.g., cells that rapidly (in approximately 2 hours) incorporate BrdU, co-express desmin and MyoD and fuse into eMyHC+myotubes when transferred to mitogen-low medium. […]

[1] = test system: MAPK pathway / Notch in human satellite cells; assay: Western blot of Delta, active Notch and pERK in human satellite cells cultured with MAPK agonists and antagonists; format: cell-based; details: human satellite cells in culture
Procedure: Myofiber and satellite cell cultures were isolated from basal state human biopsies, in a manner similar to those previously described for the mouse model (Conboy et al. (2003) Science 302:1575-1577). Whole muscle biopsies were prepared for myofiber fragments by enzymatic digestion −37° C. in DMEM (Invitrogen, Carlsbad, Calif.)/Pen-Strep (Invitrogen)/0.2% Collagenase Type IIA (Sigma), trituration, and multiple sedimentation and washing procedures. Isolated satellite cells and myofibers were resuspended in growth medium (Ham's F10 nutrient mixture—Mediatech, Inc., Herndon, Va.), 10% BGS, 5 ng/ml hbFGF (Invitrogen) and 1% Pen-Strep, and cultured on Matrigel (diluted 1:250). Blood was collected from subjects for sera isolation. Briefly, blood cells were coagulated followed by centrifugation at 8,000 rpm, 4° C. in a microfuge for 3 minutes.
For Western Blot analysis, whole skeletal muscle lysates were prepared in lysis buffer (50 mM Tris, 150 mM NaCl, 1% NP40, 0.25% sodium deoxycholate and 1 mM EDTA, pH 7.4) with addition of protease inhibitor cocktail (Sigma) and 1 mM PMSF. Phosphatase activity was inhibited by 1 mM sodium fluoride and 1 mM sodium orthovanadate. For most assays, 30 μg protein extracts were run on pre-cast SDS PAGE gels (BioRad). Primary antibodies were diluted in 5% non-fat milk/1× PBST, and nitrocellulose membranes were incubated with antibody mixtures overnight at 4° C. HRP-conjugated secondary antibodies (Santa Cruz Biotech) were diluted 1:1000 in 1× PBST/1% BSA and incubated for 1 hour at room temperature. Blots were developed using Western Lightning ECL reagent (Perkin Elmer) and analyzed with Bio-Rad Gel Doc/Chemi Doc Imaging System and Quantity One software. Results were quantified by digitizing the data and normalizing pixel density of examined protein by actin-specific pixel density.
The levels of Delta, amounts of active Notch and the efficiency of myogenic responses in human satellite cells cultured in the presence of agonists and antagonists of MAPK pathway were investigated. […]

[2] = test system: muscle stem cells (satellite cells); assay: Myogenic responses of mouse muscle stem cells in young or old mouse sera (TGF-β1 depletion and add-back, Wnt3A, FRP3); format: cell-based
Procedure: To examine the relative role of circulating TGF-β1 in the age-specific inhibition of muscle stem cell responses, TGF-β1 was depleted from young and old mouse sera and then added back in a range of concentrations. Muscle stem cells derived from young and old mice were cultured in the presence of young and old mouse sera that differed only in the levels of TGF-β1, and the regenerative responses of these cells were assayed. Serum was depleted of TGF-β1 by incubation with a TGF-β1 specific antibody (or an isotype-matched control IgG) followed by binding and removal of the TGF-β1-antibody complexes (or IgG control antibody complexes, e.g. control sera) using protein G-coated agarose beads. The success in the TGF-β1 depletion was confirmed by ELISA. The myogenic regenerative potential of muscle stem cells was quantified based on their ability to rapidly (overnight) generate de-novo myogenic lineages: BrdU-incorporating desmin+myoblasts (myogenic proliferation) that differentiate into post-mitotic eMyHC+myotubes (myogenic differentiation). The time course of such de-novo in vitro myogenesis that recapitulates the in vivo muscle repair is shown in FIG. 14A-D. Myogenic proliferation (at 24-28 hours of culture) and myogenic differentiation (at 48-72 hours of culture) were consistently higher for young satellite cells as compared to old satellite cells and in young sera as compared to old sera at all time points (FIGS. 17 and 18). The non-myogenic, desmin negative proliferating fibroblasts (known to contaminate satellite cell preparations at ˜2-5% and to expand in the presence of old sera or high levels of TGF-β (Carlson et al., 2008) were less numerous in cultures with experimentally calibrated levels of TGF-β1 (FIG. 15) and also declined in cultures with exogenous Wnt 3A (FIG. 16A).
Recombinant TGF-β1 was added at a range of concentrations to these mouse sera (depleted from endogenous TGF-β1) and assayed the regenerative responses of muscle stem cells, as above. […] The levels of TGF-β1 that are permissive for myogenic responses correspond to the range of bioactive TGF-β1 found in young blood sera, while the inhibitory range corresponds to the levels typical of aged circulation. The threshold mode of TGF-β1-imposed inhibition of muscle repair established here, also correlate well with the results of heterochronic parabiosis.
A similar rescue of satellite cell responses in the presence of old serum was reported to be achieved by inhibition of Wnt via FRPs, and exogenous Wnt3A was reported to inhibit satellite cell myogenic responses, in favor of fibroblast trans-differentiation (Brack et al., (2007), Science, 317:807-810). Thus, an investigation was conducted to determine whether Wnt was potentially synergistic with the TGF-β1-dependent attenuation of myogenic potential. Myogenic potential of young and old satellite cells was examined in the following conditions: young serum with exogenous Wnt3A (by itself or simultaneously with exogenous TGF β1) or old serum with exogenous FRP3 (by itself or simultaneously with TGF-β neutralization). […] In fact, consistent with the previously reported pro-myogenic activity of Wnt, Wnt3A […].
Myofiber explant cultures and primary myogenic progenitor cells were generated from C57/Bl6 mice using methods known in the art (see e.g., Conboy et al., (2003), Science, 302:1575-1577). Myoblasts were maintained in growth media (Ham's F-10, 20% FBS, 5 ng/ml basic-FGF, and penicillin-streptomycin). Opti-MEM was used to culture myofibers explants in 10% young, 10% old, or 10% young and old mouse serum (5% each). Differentiation media consisted of DMEM and 5% horse serum. Basic-FGF was obtained from Sigma (St. Louis, Mo.) and R&D systems (Minneapolis, Minn.), Opti-MEM was obtained from Invitrogen (Carlsbad, Calif.), and all other cell culture reagents were obtained from Cellgro (Herndon, Va.).

old muscle repair = assay: Muscle regeneration after CTX injury in mice given systemic TGF-β attenuators; format: in vivo, mouse
Procedure: Five days before the end of treatment, muscle was injured. At the end of treatment, animals were sacrificed and muscle was collected. BrdU was injected (intraperitoneal) at 3 days post-injury to label proliferating, fusion-competent myoblasts.
Experiments were conducted to rejuvenate muscle repair in old tissue by attenuating TGF-β pathway activity through systemic pharmacological intervention, in vivo. Three independent attenuators were used: (1) a small molecule inhibitor of TGF-β RI Kinase, (2) TGF-β neutralizing antibody and (3) a decoy composed of the extracellular portion of TGF-β receptor II. These molecules were administered systemically to mice, twice daily. After 10 days of dosage, muscle was injured by CTX, and 5 days after injury and BrdU administration the muscle was harvested, frozen, and examined histologically.
To control for the potential differences in the half-life of anti-TGF-β neutralizing antibody as compared to TGF-β RI Kinase inhibitor, constitutive systemic delivery of these molecules was provided by osmotic subcutaneous pumps for four weeks.

TGF-β/pSmad signaling = assay: Western blot of pSmad3 and TGF-β1 in muscle of treated old mice; format: in vivo, mouse; details: osmotic pumps
TGF-β1 = assay: ELISA of circulating TGF-β1 in treated old mice; format: in vivo, mouse
Text: Control injections/pumps of goat IgG yielded data typical of young and old untreated mice for muscle repair and TGF-β1 ELISA.

## FGF-2: MAPK agonist FGF-2
Human satellite cells
  myogenic regenerative capacity (proliferating fusion-competent myoblasts, desmin/BrdU): significantly enhanced
[1]
  Delta levels: induced
  active Notch levels: induced
  levels of pERK: induced

## TGF-β1: recombinant TGF-β1 added to cultures or depleted sera [reference compound]
[2]; recombinant TGF-β1 added to mouse sera depleted of endogenous TGF-β1, 1-5 ng/ml and higher
  concentration of TGF-β1 that alone suffices for inhibition of myogenic satellite cell responses: 1 to 5 ng/mL
Human satellite cells
  myogenic regenerative capacity (proliferating fusion-competent myoblasts, desmin/BrdU): dramatically reduced

B1: FRP: exogenous FRP3, inhibitor of Wnt (protein, UniProt Q92765 33-325, looked up)
Secreted frizzled-related …: AACEPVRIPLCKSLPWNMTKMPNHLHHSTQANAILAIEQFEGLLGTHCSPDLLFFLCAMYAPICTIDFQHEPIKPCKSVCERARQGCEPILIKYRHSWPENLACEELPVYDRGVCISPEAIVTADGADFPMDSSNGNCRGASSERCKCKPIRATQKTYFRNNYNYVIRAKVKEIKTKCHDVTAVVEVKEILKSSLVNIPRDTVNLYTSSGCLCPPLNVNEEYIIMGYEDEERSRLLLVEGSIAEKWKDRLGKKVKRWDMKLRHLGLSKSDSSNSDSTQSQKSGRNSNPRQARN
[2]; old serum with exogenous FRP3
  myogenic responses in old serum: did not rescue
Old muscle repair; experimental attenuation of Wnt by FRP
  regeneration of old muscle in vivo: did not improve

B2: soluble TGF-β receptor II: a decoy composed of the extracellular portion of TGF-β receptor II (protein, UniProt P37173 23-166, looked up)
extracellular domain: TIPPHVQKSVNNDMIVTDNNGAVKFPQLCKFCDVRFSTCDNQKSCMSNCSITSICEKPQEVCVAVWRKNDENITLETVCHDPKLPYHDFILEDAASPKCIMKEKKKPGETFFMCSCSSDECNDNIIFSEEYNTSNPDLLLVIFQ
modifications: extracellular domain
TGF-β/pSmad signaling
  levels of TGF-β1 in old muscle: not
  levels of pSmad3 in old muscle: not
TGF-β1
  circulating levels of TGF-β1: failed to reduce
Old muscle repair; old mice, systemic administration twice daily, CTX injury after 10 days, 5 days post-injury
  muscle regeneration / myogenic regenerative capacity: did not result in the rejuvenation

B3: Wnt3A: exogenous Wnt3A (protein, UniProt P56704 19-352, looked up)
Protein Wnt-3a: SYPIWWSLAVGPQYSSLGSQPILCASIPGLVPKQLRFCRNYVEIMPSVAEGIKIGIQECQHQFRGRRWNCTTVHDSLAIFGPVLDKATRESAFVHAIASAGVAFAVTRSCAEGTAAICGCSSRHQGSPGKGWKWGGCSEDIEFGGMVSREFADARENRPDARSAMNRHNNEAGRQAIASHMHLKCKCHGLSGSCEVKTCWWSQPDFRAIGDFLKDKYDSASEMVVEKHRESRGWVETLRPRYTYFKVPTERDLVYYEASPNFCEPNPETGSFGTRDRTCNVSSHGIDGCDLLCCGRGHNARAERRREKCRCVFHWCCYVSCQECTRVYDVHTCK
[2]; Wnt3A simultaneously with exogenous TGF-β1, young serum
  generation of fusion-competent proliferating myoblasts by satellite cells: enhanced
[2]; exogenous Wnt3A
  myotube formation: enhanced
  presence of non-myogenic fibroblastic cells (desmin-BrdU+): actually reduced
[2]; young serum with exogenous Wnt3A
  myogenic potential in young serum: did not reduce
